# Assay results: publication PMC9998502, “Functional selectivity of EM-2 analogs at the mu-opioid receptor” (Frontiers in Pharmacology, 2023)
# How the values were obtained:
# [1] = biological target: human delta opioid receptor (human) (UniProt P41143)
# [2] = biological target: human delta opioid receptor (human) (UniProt P41143); test: radioligand binding; displacement of [3H]deltorphin-2 from commercial membranes of CHO cells transfected with the human recombinant delta opioid receptor; Ki, mean ± SEM, n ≥ 3
# [3] = biological target: human kappa opioid receptor (human) (UniProt P41145); test: radioligand binding; displacement of [3H]U-69593 from commercial membranes of CHO cells transfected with the human recombinant kappa opioid receptor; Ki, mean ± SEM, n ≥ 3
# [4] = biological target: RLuc-tethered human mu receptor fusion protein (human) (UniProt P35372)
# [5] = biological target: human mu opioid receptor (human) (UniProt P35372); test: radioligand binding; displacement of [3H]DAMGO from commercial membranes of CHO cells transfected with the human recombinant mu opioid receptor; Ki, mean ± SEM, n ≥ 3
# [6] = biological target: human mu opioid receptor (human) (UniProt P35372)
# [7] = biological target: human kappa opioid receptor (human) (UniProt P41145)
Substance,"calcium mobilization, CHO cells with delta receptor and GαqG66Di5: α (Emax ratio to the standard agonist) [1]",Ki [2] [nM],Ki [3] [nM],"BRET of mu-RLuc with Gβ1-RGFP promoted by the peptide, SH-SY5Y membranes: Emax (EM-2 = 1.00) [4]",Ki [5] [nM],"calcium mobilization, CHO cells with human mu receptor and Gαqi5: α (Emax ratio to the standard agonist) [6]","BRET of mu-RLuc with β-arrestin 2-RGFP promoted by the peptide, living SH-SY5Y cells: Emax (EM-2 = 1.00) [4]","BRET of mu-RLuc with β-arrestin 2-RGFP promoted by the peptide, living SH-SY5Y cells: Emax (EM-2 = 1.00), forced to 1 [4]","calcium mobilization, CHO cells with human kappa receptor and Gαqi5: α (Emax ratio to the standard agonist) [7]"
DPDPE (peptide),1,,,,,,,,
EM-2 analog 1 (Dmt-Pro-Phe-Phe-NH2) (peptide),,560,830,,,,,,
EM-2 analog 2 (Tyr-(R)-Pip-Phe-Phe-NH2) (peptide),,682,> 1000,0.83,17.7,0.64,,,
EM-2 analog 3 (Dmt-(R)-Pip-Phe-Phe-NH2) (peptide),0.56,37,72,0.83,3.92,0.7,,,
EM-2 analog 8 (Tyr-(R)-β3-Ala-Phe-Phe-NH2) (peptide),,> 1000,> 1000,0.96,0.44,0.99,1.12,,
EM-2 analog 10 (Tyr-Pro-(R)-β2-1-Nal-Phe-NH2) (peptide),,,,0.68,,,,,
EM-2 analog 11 (Dmt-Pro-(R)-β2-1-Nal-Phe-NH2) (peptide),,,,0.81,,,,,
EM-2 analog 12 (Tyr-Pro-(R)-β3-1-Nal-Phe-NH2) (peptide),,,,0.96,,,0.73,,
EM-2 analog 13 (Dmt-Pro-(R)-β3-1-Nal-Phe-NH2) (peptide),,,,0.84,,,0.37,,
dynorphin A (peptide),,,,,,,,,1

# Results, then the substance that gave them:
"calcium mobilization, CHO cells with delta receptor and GαqG66Di5: α (Emax ratio to the standard agonist) [1]",Ki [2] [nM],Ki [3] [nM],"BRET of mu-RLuc with Gβ1-RGFP promoted by the peptide, SH-SY5Y membranes: Emax (EM-2 = 1.00) [4]",Ki [5] [nM],"calcium mobilization, CHO cells with human mu receptor and Gαqi5: α (Emax ratio to the standard agonist) [6]","BRET of mu-RLuc with β-arrestin 2-RGFP promoted by the peptide, living SH-SY5Y cells: Emax (EM-2 = 1.00) [4]","BRET of mu-RLuc with β-arrestin 2-RGFP promoted by the peptide, living SH-SY5Y cells: Emax (EM-2 = 1.00), forced to 1 [4]","calcium mobilization, CHO cells with human kappa receptor and Gαqi5: α (Emax ratio to the standard agonist) [7]",Substance
,> 1000,> 1000,1.11,0.85,0.99,1.3,,,EM-2 analog 4 (Tyr-(R)-Nip-Phe-Phe-NH2) (peptide)
,589,567,1.11,0.14,1,1.26,,,EM-2 analog 5 (Dmt-(R)-Nip-Phe-Phe-NH2) (peptide)
,> 1000,> 1000,0.86,46.8,0.88,,1,,EM-2 analog 6 (Tyr-(R)-β2-Ala-Phe-Phe-NH2) (peptide)
,571,807,0.98,0.31,0.95,0.61,,,EM-2 analog 7 (Dmt-(R)-β2-Ala-Phe-Phe-NH2) (peptide)
,286,890,1.05,0.14,1,1.16,,,EM-2 analog 9 (Dmt-(R)-β3-Ala-Phe-Phe-NH2) (peptide)
,> 1000,> 1000,,,,,,,endomorphin-2 (Tyr-Pro-Phe-Phe-NH2) (peptide)
